The values that follow come from PMC9519967 (2022).

Experiment in all cases: MST
The target in assay [1] is Sos-C-Tail-6 truncated peptide (without GST) (UniProt Q07889).
Assay [2] concerns the target Sos-C-Tail-8 truncated peptide (without GST) (UniProt Q07889).
For assay [3], the target named is Sos-C-Tail-5 truncated peptide (without GST) (UniProt Q07889).

For orientation: Kd means the equilibrium constant for the complex coming apart. Higher therefore signals a looser complex.

B1: His-tagged Grb3-3 N-terminal SH3 and SH2 domain (NSH3SH2Δ40) (domain or fragment)
chain: MEAIAKYDFKATADDELSFKRGDILKVLNEECDQNWYKAELNGKDGFIPKNYIEMKPHPFGNDVQHFKVLRDGAGKYFLWVVKFNSLNELVDYHRSTSVSRNQQIFLRDIE
modifications: Atto488 NHS ester label, 1:1 protein:dye
As to B1, the results for the dissociation constant Kd in assay [1], in assay [2] and in assay [3] were 3.41 µM, 71.1 µM and 2.36 µM, respectively.
